Data set [1] concerns the target recombinant untagged VP6 of bluetongue virus, wild type (bluetongue virus (serotype of the cDNA not stated)). Description: cryo-EM structure.
Data set [2] has as its target T1, VP3 (WT, co-expressed with VP6);VP6 (WT) (Bluetongue virus;Bluetongue virus, UniProt D8V886;D8V892 1-901;1-329, |).
T1 sequence 1: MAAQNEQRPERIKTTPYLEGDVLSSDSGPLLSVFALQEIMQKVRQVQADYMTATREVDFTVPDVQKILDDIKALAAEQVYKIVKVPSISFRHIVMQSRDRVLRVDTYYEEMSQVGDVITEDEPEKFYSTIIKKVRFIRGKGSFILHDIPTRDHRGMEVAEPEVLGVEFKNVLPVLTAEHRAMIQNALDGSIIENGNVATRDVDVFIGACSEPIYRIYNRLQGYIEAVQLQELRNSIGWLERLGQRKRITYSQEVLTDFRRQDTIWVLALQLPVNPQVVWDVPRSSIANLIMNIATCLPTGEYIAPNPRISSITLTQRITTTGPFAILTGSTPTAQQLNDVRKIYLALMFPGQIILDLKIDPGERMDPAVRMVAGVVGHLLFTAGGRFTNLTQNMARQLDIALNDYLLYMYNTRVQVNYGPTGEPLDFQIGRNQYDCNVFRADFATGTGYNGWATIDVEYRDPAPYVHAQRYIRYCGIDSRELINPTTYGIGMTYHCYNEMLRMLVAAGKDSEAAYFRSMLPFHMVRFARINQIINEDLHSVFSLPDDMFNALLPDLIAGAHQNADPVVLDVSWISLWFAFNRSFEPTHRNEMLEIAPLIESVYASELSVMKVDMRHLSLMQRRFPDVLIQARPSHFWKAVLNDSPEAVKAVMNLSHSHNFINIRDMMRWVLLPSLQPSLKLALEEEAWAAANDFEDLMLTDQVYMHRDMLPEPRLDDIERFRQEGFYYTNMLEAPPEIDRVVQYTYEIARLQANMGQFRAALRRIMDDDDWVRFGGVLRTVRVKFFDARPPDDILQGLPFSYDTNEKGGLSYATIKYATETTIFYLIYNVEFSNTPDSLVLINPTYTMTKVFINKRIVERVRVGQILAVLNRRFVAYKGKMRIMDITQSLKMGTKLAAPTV
T1 sequence 2: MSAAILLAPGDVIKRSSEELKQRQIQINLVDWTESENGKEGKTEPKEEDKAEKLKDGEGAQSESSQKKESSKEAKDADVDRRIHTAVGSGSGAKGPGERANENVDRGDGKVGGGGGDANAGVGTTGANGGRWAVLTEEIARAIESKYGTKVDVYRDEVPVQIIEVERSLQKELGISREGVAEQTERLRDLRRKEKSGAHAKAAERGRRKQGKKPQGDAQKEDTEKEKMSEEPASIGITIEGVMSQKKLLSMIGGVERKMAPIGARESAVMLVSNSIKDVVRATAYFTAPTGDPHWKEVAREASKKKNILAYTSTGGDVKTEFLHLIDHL
Kind of data set: EMSA. In general terms: Mobility shift assays separate free from complexed probe on a gel.

In data set [3] the target is T1, VP3 (WT, co-expressed with VP6);VP6 (WT). Description: cryo-EM.
The data set “SEC + AUC” concerns the molecule itself. Description: SEC + AUC.
The data set “cryo-EM structure” deals with the molecule itself. Kind of data set: cryo-EM structure.

Results on 4 molecules are retold here after publication PMC11182334 (Cell, 2024).

The stoichiometry N is a count of units in the complex or per binding partner. In the case of “recombinant untagged VP6 of bluetongue virus, wild type (natural protein)”, the stoichiometry N in data set [1] is 5.
As to GUUAAAAAAUCGCAUA (ssRNA) [Cy5-labeled 16 nt ssRNA], the “apparent K (half saturation)” value in data set [2] is 192 nM.
Take UUUUUUUUUUUUUUUUUUUUUUUUUUUUUUUUUUUUUUUU (ssRNA) [40 nt poly-U ssRNA]: the binding result in data set [3] is listed as “binds”.

B1: recombinant His-tagged VP3 of bluetongue virus, wild type (natural protein)
chain: MAAQNEQRPERIKTTPYLEGDVLSSDSGPLLSVFALQEIMQKVRQVQADYMTATREVDFTVPDVQQILDDIKALAAAQVYKIVKVPSTSFRHIVTQSRDRVLRVDTYYEEMSQVGDVITEDEPEKFYSTIIKKVRFIRGKGSFILHDIPARDHRGMEVAEPEVLGVEFKNVLPVLTAEHRAMIQNALDGSIIENGNVATRDVDVFIGACSEPFYRIYNRFQGYIEAVQLQELRNSIGWLERLGQRKRITYSQEVLTDFRRQDMIWVLALQLPVNPQVVWDVPRSSIANLIMNIATCLPTGEYIAPNPRISSITLTQRITTTGPFAILTGSTPTAQQLNDVRKIYLALMFPGQIILDLKIDPGERMDPAVRMVAGVVGHLLFTAGGRFTNLTQNMARQLDIALNDYLLYMYNTRVQVNYGPTGEPLDFQIGRNQYDCNVFRADFATGTGYNGWATIDVEYRDPAPYVHAQRYIRYCGIDSRELINPTTYGIGMTYHCYNEMLRMLVAAGKDSEAAYFRSMLPFHMVRFARINQIINEDLHSVFSLPDDMFNALLPDLIAGAHQNADPVVLDVSWISLWFAFNRSFEPTHRNEMLEIAPLIESVYASELSVMKVDMRHLSLMQRRFPDVLIQARPSHFWKAVLNDSPEAVKAVMNLSHSHNFINIRDMMRWVLLPSLQPSLKLVLEEEAWAAANDFEDLMLTDQVYMHRDMLPEPRLDDIERFRQEGFYYTNMLEAPPEIDRVVQYTYEIARLQANMGQFRAALRRIMDDDDWIGFGGVLRTVRVKFFDARPPDDILQGLPFSYDTNEKGGLSYATIKYATETTIFYLIYNVEFSNTPDSLVLINPTYTMTKVFINKRIVERVRVGQILAVLNRRFVAYKGKMRIMDITQSLKMGTKLAAPTV
For B1, the “stoichiometry N” value in the data set “SEC + AUC” was about 4; in “cryo-EM structure”, 4.
